In US12258384B2, “Fusion albumin nanoparticle and application thereof” (Jiangnan University, priority 2019, dated 2025):

Key:
[1] = Loading of docetaxel with recombinant fusion protein, drug loading rate; format: physicochemical; settings: 1 mg/mL protein, mixed at pH 5.5 with 10 mg/ml docetaxel solution, then pH 7.4
Protocol: (§1) Albumin fusion protein powder freeze-dried by a freeze dryer was dissolved in a PBS buffer solution to prepare a 1 mg/mL solution, the pH was adjusted to 5.5 with a 1 mM HCl solution, after a 10 mg/ml docetaxel solution was added, the pH was adjusted to 7.4 with a 1 mM NaOH solution, centrifugation was performed at 10000 rpm for 20 minutes, an obtained precipitate was uniformly mixed with ultrapure water and then centrifuged at 1000 rpm for 20 minutes, and the steps above were repeated 3 times to obtain a fusion protein nanoparticle.

[2] = Loading of paclitaxel with recombinant fusion protein (pH response self-assembly), drug loading rate; format: physicochemical; settings: 1 mg/ml protein, mixed at pH 5.5 with 10 mg/mL paclitaxel solution, then pH 7.4
Protocol: as §1, with “a 1 mg/ml solution, the” for “a 1 mg/mL solution, the”, “a 10 mg/mL paclitaxel solution was” for “a 10 mg/ml docetaxel solution was”, “obtain a paclitaxel-loaded fusion protein” for “obtain a fusion protein”
A final drug loading rate was directly affected by a mixing ratio of albumin to a drug (for example, paclitaxel): Fusion albumin powder freeze-dried by a freeze dryer was dissolved in a PBS buffer solution to prepare a 1 mg/ml solution, the pH was adjusted to 5.5 with a 1 mM HCl solution, after a drug solution with a concentration of 5 mg/ml, 8 mg/ml, 12 mg/mL and 15 mg/ml was separately added, the pH was adjusted to 7.4 with a 1 mM NaOH solution, centrifugation was performed at 10000 rpm for 20 minutes, an obtained precipitate was uniformly mixed with ultrapure water and then centrifuged at 1000 rpm for 20 minutes, and the steps above were repeated 3 times to obtain a paclitaxel-loaded fusion protein nanoparticle. […]

**Q.** For “RH: albumin fusion protein 3RGD-HSA, without His fusion”, which “drug loading rate (docetaxel)” value [1] is on record?
**A.** Its value is 7.08%.

**Q.** And the “drug loading rate (paclitaxel)” value [2]?
**A.** The value was 6.38%.
